# Laboratory results from the supplement of paper PMC10567573.
# B1: ZNF8 (parent)
# chain: SLGRHKRTHTGEKPYTCSVCGKSF
# Variants of: B1
# Experiment: protein stability index of a GFP-peptide fusion (GPS, HEK-293T) (PSI 1-6); higher = more stable
# Conditions: c terminus: a fixed tail appended
# 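Further: lentivirally expressed fusions sorted by FACS into six bins by GFP to DsRed ratio, PSI derived from sequencing read proportions per bin multiplied by bin number.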
row,Variant,protein stability index
1,Y15G,2.45
2,Y15H,2.34
3,Y15I,2.59
4,Y15K,2.72
5,Y15L,2.44
6,Y15M,2.52
7,Y15N,2.33
8,Y15P,2.29
9,Y15Q,2.33
10,Y15R,2.61
11,Y15S,2.9
12,Y15T,2.3
13,Y15V,2.44
14,Y15W,2.63
15,T16A,2.95
16,T16C,2.31
17,T16D,2.81
18,T16E,2.98
19,T16F,3.04
20,T16H,2.77
21,T16I,2.75
22,T16K,2.68
23,T16L,2.25
24,T16M,2.85

row,Variant,protein stability index
1,T16N,2.97
2,T16P,2.19
3,T16Q,3.14
4,T16R,2.89
5,T16S,2.51
6,T16V,3.01
7,T16W,2.33
8,T16Y,2.61
9,C17A,3.81
10,C17D,4.3
11,C17E,3.77
12,C17F,2.4
13,C17G,3.49
14,C17H,3.32
15,C17I,2.38
16,C17K,3.65
17,C17L,2.33
18,C17M,2.96
19,C17N,3.78
20,C17P,3.17
21,C17Q,3.76
22,C17R,2.75
23,C17S,3.3
24,C17T,3.19

row,Variant,protein stability index
1,C17V,3.58
2,C17W,2.81
3,C17Y,2.77
4,S18A,2.94
5,S18C,2.63
6,S18D,2.76
7,S18E,3.38
8,S18F,2.08
9,S18G,2.83
10,S18H,2.26
11,S18I,2.34
12,S18K,2.98
13,S18L,2.44
14,S18M,2.58
15,S18N,2.02
16,S18P,3
17,S18Q,3.16
18,S18R,2.54
19,S18T,2.68
20,S18V,2.83
21,S18W,2.84
22,S18Y,2.71
23,V19A,2.36
24,V19C,3.68

row,Variant,protein stability index
1,V19D,3.5
2,V19E,2.42
3,V19F,2.67
4,V19G,2.7
5,V19H,3.06
6,V19I,2.79
7,V19K,2.93
8,V19L,2.29
9,V19M,2.7
10,V19N,3.47
11,V19P,3.06
12,V19Q,3.45
13,V19R,3.15
14,V19S,3.04
15,V19T,2.75
16,V19W,1.88
17,V19Y,2.64
18,C20A,3.05
19,C20D,3.99
20,C20E,3.78
21,C20F,2.47
22,C20G,3.18
23,C20H,2.79
24,C20I,2.94

row,Variant,protein stability index
1,C20K,3.23
2,C20L,2.45
3,C20M,3.36
4,C20N,3.51
5,C20P,3.36
6,C20Q,3.42
7,C20R,2.98
8,C20S,4
9,C20T,3.44
10,C20V,3.13
11,C20W,2.4
12,C20Y,2.94
13,G21A,2.35
14,G21C,2
15,G21D,3.11
16,G21E,2.1
17,G21F,2.5
18,G21H,2.78
19,G21I,2.01
20,G21K,3.36
21,G21L,1.9
22,G21M,2.71
23,G21N,2.98
24,G21P,3.12

row,Variant,protein stability index
1,G21Q,2.59
2,G21R,3.03
3,G21S,2.94
4,G21T,3.14
5,G21V,2.17
6,G21W,1.88
7,G21Y,1.92
8,K22A,2.82
9,K22C,2.54
10,K22D,3.01
11,K22E,3.66
12,K22F,2.54
13,K22G,2.19
14,K22H,3.12
15,K22I,2.05
16,K22L,2.36
17,K22M,2.07
18,K22N,2.87
19,K22P,3.29
20,K22Q,2.47
21,K22R,3.09
22,K22S,2.34
23,K22T,3.37
24,K22V,2.48

row,Variant,protein stability index
1,K22Y,3.41
2,S23A,2.5
3,S23C,2.48
4,S23D,3.3
5,S23E,3.03
6,S23F,2.38
7,S23G,2.94
8,S23H,3.12
9,S23I,2.8
10,S23K,3.3
11,S23L,2.69
12,S23M,2.18
13,S23N,2.9
14,S23P,2.39
15,S23Q,2.25
16,S23R,3.2
17,S23T,3.32
18,S23V,1.95
19,S23W,2.12
20,S23Y,2.79
21,F24A,3.1
22,F24C,4.13
23,F24D,3.83
